Experimental data from patent US9221915 (dated 2015).
Read-outs that look alike come from different tables or passages of the source.

T1: cynomolgus ALK-1 cell surface (cynomolgus monkey)
T1 chain: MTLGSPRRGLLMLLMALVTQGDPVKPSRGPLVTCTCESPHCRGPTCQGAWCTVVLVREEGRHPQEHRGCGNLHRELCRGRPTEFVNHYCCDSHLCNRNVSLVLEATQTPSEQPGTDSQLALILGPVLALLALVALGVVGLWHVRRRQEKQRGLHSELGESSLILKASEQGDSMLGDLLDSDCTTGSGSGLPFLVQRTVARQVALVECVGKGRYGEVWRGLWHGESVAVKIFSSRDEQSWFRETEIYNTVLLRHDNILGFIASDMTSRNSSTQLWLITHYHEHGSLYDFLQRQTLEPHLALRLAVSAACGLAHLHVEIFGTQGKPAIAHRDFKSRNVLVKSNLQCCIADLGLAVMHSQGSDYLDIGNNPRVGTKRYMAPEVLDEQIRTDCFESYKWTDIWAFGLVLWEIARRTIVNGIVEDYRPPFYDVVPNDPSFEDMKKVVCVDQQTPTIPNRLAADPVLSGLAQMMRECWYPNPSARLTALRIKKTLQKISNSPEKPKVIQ

T2: rat ALK-1 cell surface (rat, UniProt P80203)
T2 chain: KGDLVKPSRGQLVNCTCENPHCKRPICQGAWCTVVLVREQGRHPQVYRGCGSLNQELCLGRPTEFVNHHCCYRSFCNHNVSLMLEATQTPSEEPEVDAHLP

T3: cynomolgus ALK-1/Fc (cynomolgus monkey)
T3 chain: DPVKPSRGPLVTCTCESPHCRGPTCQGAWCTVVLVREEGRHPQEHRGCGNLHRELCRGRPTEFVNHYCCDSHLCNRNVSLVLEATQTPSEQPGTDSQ


Legend:
[1] = molecular target: T1, cynomolgus ALK-1 cell surface; assay: FACS
[2] = molecular target: T2, rat ALK-1 cell surface; assay: FACS
[3] = molecular target: T1, cynomolgus ALK-1 cell surface; assay: FACS
[4] = molecular target: T3, cynomolgus ALK-1/Fc; assay: SPR, bivalent
[5] = molecular target: human ALK-1/Fc (human, UniProt P37023); assay: SPR, bivalent

Binder | Kd [1] | Kd [4] | Kd [5] | other results
1.12.1 (antibody, V domains shown) VH: QVQLQESGPGLVKPSQTLSLTCTVSGGSMSSGEYYWNWIRQHPGKGLEWIGYIYYSGSTYYNPSLKSRVTISVDTSKNQFSLKLSSVTAADTAVYYCARESVAGFDYWGQGTLVTVSS VL: not shown | 2 nM |  |  | Kd [2]: > 100 nM; Kd [3]: 2 nM
4.68.1 (antibody, V domains shown) VH: QVQLQESGPGLVKPSQTLSLTCTVSGGSISSGDYYWNWIRQHPGKGLEWIGYIYYSGSTYYNPSLKSRVTISVDTSKNQFSLKLSSVTAADTAVYYCAREDIAGFDPWGQGTLVTVSS VL: not shown | 9 nM |  |  | 
4.24.1 (antibody, V domains shown) VH: QVQLQESGPGLVKPSQTLSLTCTVSGGSISSNDYYWNWIRQHPGKGLEWIGYIYYSGSTYYNPSLKSRVTISVDTSKNQFSLKLSSVTAADTAVYYCARESTDGMDVWGQGTTVTVSS VL: ENVLTQSPGTLSLSPGERATLSCRASQSVSSNYLAWYQQKPGQAPRLLIYGASSGATGIPDRFSGSGSGTDFTLTISRLEPEDFAVYYCQHYGSSPITFGQGTRLEIK | 3.1 nM |  |  | 
1.12.1(D19A) (antibody, V domains shown) VH: QVQLQESGPGLVKPSQTLSLTCTVSGGSMSSGEYYWNWIRQHPGKGLEWIGYIYYSGSTYYNPSLKSRVTISVDTSKNQFSLKLSSVTAADTAVYYCARESVAGFDYWGQGTLVTVSS VL: not shown |  |  |  | Kd [3]: 3.8 nM
4.72.2 (antibody, V domains shown) VH: QVQLQESGPGLVKPSQTLSLTCTVSGGSISSGEYYWSWIRQHPGKGLEWIGYIFYSGSTYYNPSLKSRVTISLDTSKNQFSLKLSSVTAADTAVYYCARESTDGMDVWGQGTTVTVSS VL: EIVLTQSPGTLSLSPGERATLSCRASQSVSSSYLAWYQRKPGQAPRLLIYGVSSRATGIPDRFSGSGSGTDFTLTISRLEPEDFAVYYCQQYGSSMITFGQGTRLEIK |  | 0.28 nM | 0.073 nM | 
5.13.3 (antibody, V domains shown) VH: QVQLQESGPGLVKPSQTLSLTCTVSGGSISSGDYYWNWIRQHPGKGLEWIGYIYYSGSTYYNPSLKSRVTISVDTSKNQFSLKLSSVTAADTAVYYCAREGLEAFDIWGQGTMVTDSS VL: EIVLTQSPGTLSLSPGERATLSCRASQSVSSSYLAWYQQKPGQAPRLLIYDASSRATGIPDRFSGSGSGTDFTLTISRLEPEDFAVYYCQHYGSSLLTFGGGTKVEIK |  | 0.19 nM |  | 
4.72.1 (antibody, V domains shown) VH: QVQLQESGPGLVKPSQTLSLTCTVSGGSISSGEYYWSWIRQHPGKGLEWIGYIFYSGSTYYNPSLKSRVTISLDTSKNQFSLKLSSVTAADTAVYYCARESTDGMDVWGQGTTVTVSS VL: EIVLTQSPGTLSLSPGERATLSCRASQSVSSSYLAWYQRKPGQAPRLLIYGVSSRATGIPDRFSGSGSGTDFTLTISRLEPEDFAVYYCQQYGSSMITFGQGTRLEIK | 3.8 nM |  |  | 
4.24.2 (antibody, V domains shown) VH: QVQLQESGPGLVKPSQTLSLTCTVSGGSISSNDYYWNWIRQHPGKGLEWIGYIYYSGSTYYNPSLKSRVTISVDTSKNQFSLKLSSVTAADTAVYYCARESTDGMDVWGQGTTVTVSS VL: ENVLTQSPGTLSLSPGERATLSCRASQSVSSNYLAWYQQKPGQAPRLLIYGASSGATGIPDRFSGSGSGTDFTLTISRLEPEDFAVYYCQHYGSSPITFGQGTRLEIK |  | 0.43 nM | 0.07 nM | 
4.68.2 (antibody, V domains shown) VH: QVQLQESGPGLVKPSQTLSLTCTVSGGSISSGDYYWNWIRQHPGKGLEWIGYIYYSGSTYYNPSLKSRVTISVDTSKNQFSLKLSSVTAADTAVYYCAREDIAGFDPWGQGTLVTVSS VL: not shown |  | 0.32 nM |  | 
1.162.1 (antibody, V domains shown) VH: QVQLQESGPGLVKPSQTLSLICTVSGGSISSGEYYWSWIRQHPGKGLEWIGYIYYSGSTYYNPSLKSRLTISVDTSKNQFSLKLSSVTAADTAVYYCAREGIGAFDIWGQGTMVTVSS VL: EIVLTQSPGTLSLSPGERATLSCRASQSVSSSYLAWYQQKPGQAPRLLIYGASSRATGIPDRFSGSGSGTDFTLTIIRLDPEDFAVYYCQRYGSSPITFGQGTRLEIK | 3 nM | 0.062 nM | 0.018 nM | 
4.58.2 (antibody, V domains shown) VH: QVQLQESGPGLVKPSQTLSLTCTVSGGSISSGDYYWNWIRQHPGKGLEWIGYIYYSGSTYYNPSLKSRVTISVATSKNQFSLKLSSVTAADTAVYYCAREATEGFDYWGQGTLVTVSS VL: EIVLTQSPGTLSLSPGERATLSCRASQSVSTTYLAWYQQKPGQAPRLLIYGASSRATGIPDRFSGSGSGTDFTLTISRLEPEDFALYYCQHYGTSSITFGQGTRLEIK |  | 0.13 nM | 0.04 nM | 
5.13.1 (antibody, V domains shown) VH: QVQLQESGPGLVKPSQTLSLTCTVSGGSISSGDYYWNWIRQHPGKGLEWIGYIYYSGSTYYNPSLKSRVTISVDTSKNQFSLKLSSVTAADTAVYYCAREGLEAFDIWGQGTMVTDSS VL: EIVLTQSPGTLSLSPGERATLSCRASQSVSSSYLAWYQQKPGQAPRLLIYDASSRATGIPDRFSGSGSGTDFTLTISRLEPEDFAVYYCQHYGSSLLTFGGGTKVEIK | 1.6 nM |  |  | 
1.14.2 (antibody, V domains shown) VH: QVQLQESGPGLVKPSETLSLTCTVSGGSVSSGDYYWNWIRQPPGKGLEWIGYIYYSGSTNYNPSLKSRVTISVDTSKNQFSLKLSSVTAADTAVYYCAREAVSAFDYWGQGTLVTVSS VL: EIVLTQSPGTLSLSPGERATLSCRASQSVSSTYLAWHQQKPGQAPRLLIYGVSSRASGVPDRFSGSGSGTDFTLTISRLEPEDFAVYYCQQYGSSPITFGQGTRLEIK |  | 0.28 nM | 0.076 nM | 
4.62.1 (antibody, V domains shown) VH: QVQLQESGPGLVKPSQTLSLTCTVSGGSISSGDYYWNWIRQHPGKGLEWIGYIYYSGSTYYNPSLKSRVTISVDTSKNQFSLKLSSVTAADTAVYYCARESTDGMDVWGQGTTVTVSS VL: not shown | 0.78 nM | 0.019 nM |  | 
4.38.1 (antibody, V domains shown) VH: QVQLQESGPGLVKPSQTLSLTCTVSGGSISSGDYYWSWIRQHPGKGLEWIGYIYYSGSTYYNPSLKSRVTISIDTSKNQFSLKLSSVTAADTAVYYCARERDYGGGFDYWGQGTLVTVSS VL: not shown |  | 0.15 nM | 0.1 nM | 
1.183.2 (antibody, V domains shown) VH: QVQLQESGPGLVKPSETLSLTCTVSGGSISSYYWSWIRQPPGKGLEWIGYIYYSGSTNYNPSLKSRVTISVDTSKNQFSLKLSSVTAADTAVYYCAREDDSSGCPYFDYWGQGTLVTASS VL: EIVMTQSPATLSVSPGERATLSCRASQSVSSNLAWYQQKPGQAPRVLIYGASTRATGIPVRFSGSGSGTEFTLTISSLQSEDFAVYYCQQYNNWPFTFGPGTKVDIK |  | 1.8 nM | 0.22 nM | 
